The values that follow come from patent publication US20250102513A1.

In assay [1] the target is PA peptide. The experiment in a line: three sequential binding/encoding cycles with cycle-specific barcodes (BC4, BC5, BC13); NGS of the final product.
The target of assay [2] is PA peptide. As to the kind of experiment: >.

In the assay with PA peptide [1], anti-PA antibody (Wako Chemicals) returned a share of extended recording tags with one barcode of 1.1% and a share of extended recording tags with two barcodes of 20.7%. Further, the share of extended recording tags with all three cycle barcodes with PA peptide [2] came to 78%.
